According to US20040151713:
Residue numbers refer to the chain shown, from its start. Names and notes keep the numbering of the source.

B1: hCdr2 wild-type (wt) recombinant protein with c-Myc tag (protein)
chain: MSSGAKEGGGGSPAYHLPHPHPHPPQHAQYVGPYRLEKTLGKGQTGLVKLGVHCITGQKVAIKIVNREKLSESVLMKVEREIAILKLIEHPHVLKLHDVYENKKYLYLVLEHVSGGELFDYLVKKGRLTPKEARKFFRQIVVCAGLCHSYSICHRDLKPENLLLDEKNNIRIADFGMASLQVGDSLLETSCGSPHYACPEVIKGEKYDGRRADMWSCGVILFALLVGALPFDDDNLRQLLEKVKRGVFHMPHFIPPDCQSLLRGMIEVEPEKRLSLEQIQKHPWYLGGKHEPDPCLEPAPGRRVAMRSLPSNGELDPDVLESMASLGCFRDRERLHRELRSEEENQEKMIYYLLLDRKERYPSCEDQDLPPRNDVDPPRKRVDSPMLSRHGKRRPERKSMEVLSITDAGGGGSPVPTRRALEMAQHSQRSRSVSGASTGLSSSPLSSPRSPVFSFSPEPGAGDEARGGGSPTSKTQTLPGPPGSPRSSGGTPLHSPLHTPRASPTGTPGTTPPPSPGGGVGGAAWRSRLNSIRNSFLGSPRFHRRKMQVPTAEEMSSLTPESSPELAKRSWFGNFISLDKEEQIFLVLKDKPLSSIKADIVHAFLSIPSLSHSVLSQTSFRAEYKASGGPSVFQKPVRFQVDISSSEGPEPSPRRDGSGGGGIYSVTFTLISGPSRRFKRVVETIQAQLLSTHDQPSVQALADEKNGAQTRPAGAPPRSLQPPPGRPDPELSSSPRRGPPKDKKLLATNGTPLP
B2: hCdr2 K59A kinase-dead mutated protein with c-Myc tag (protein)
chain: B1 chain with K59A

What was measured:
[1] = biological target: T1, GST-Cdc25B (C terminal peptide: 281-381aa), P30305
T1 chain: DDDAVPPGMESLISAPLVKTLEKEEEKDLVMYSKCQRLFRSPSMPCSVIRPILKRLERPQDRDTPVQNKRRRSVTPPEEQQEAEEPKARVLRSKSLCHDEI

[2] = biological target: GST-Cdc25C S216A [GST: P08515]
[3] = biological target: T2, GST-Cdc25C (C terminal peptide: 195-260aa), P30307
T2 chain: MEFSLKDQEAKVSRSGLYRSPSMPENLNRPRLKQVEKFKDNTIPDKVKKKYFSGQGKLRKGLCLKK

[4] = biological target: GST-Cdc25B S309A [GST: P08515]
[5] = biological target: GST-fusion recombinant protein containing human Weel (full-length protein), P30291
Chain of GST-fusion recombinant protein containing human Weel (full-length protein), P30291 (P30291 whole entry, looked up, the tested form may be a part): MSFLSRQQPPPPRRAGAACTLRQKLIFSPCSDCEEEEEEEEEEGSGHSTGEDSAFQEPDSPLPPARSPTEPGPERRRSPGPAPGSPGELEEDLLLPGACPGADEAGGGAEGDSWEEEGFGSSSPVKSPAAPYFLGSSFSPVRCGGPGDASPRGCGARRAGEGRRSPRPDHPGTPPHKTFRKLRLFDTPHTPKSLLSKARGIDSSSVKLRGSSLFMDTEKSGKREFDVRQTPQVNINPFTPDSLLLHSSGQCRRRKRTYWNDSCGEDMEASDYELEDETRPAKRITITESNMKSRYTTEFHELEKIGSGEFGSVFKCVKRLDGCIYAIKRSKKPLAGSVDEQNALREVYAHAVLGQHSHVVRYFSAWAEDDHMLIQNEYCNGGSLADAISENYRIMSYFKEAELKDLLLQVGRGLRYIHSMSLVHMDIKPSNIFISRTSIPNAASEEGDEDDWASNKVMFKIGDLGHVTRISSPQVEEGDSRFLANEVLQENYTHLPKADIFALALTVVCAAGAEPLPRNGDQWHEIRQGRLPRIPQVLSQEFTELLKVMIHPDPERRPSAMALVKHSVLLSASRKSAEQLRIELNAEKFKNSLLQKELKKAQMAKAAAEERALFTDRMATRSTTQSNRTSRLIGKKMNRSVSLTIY

| Protein | in vitro kinase assay (32P autoradiography) [1] | in vitro kinase assay (32P autoradiography) [2] | in vitro kinase assay (32P autoradiography) [3] | in vitro kinase assay (32P autoradiography) [4] | in vitro kinase assay (32P autoradiography) [5] |
| --- | --- | --- | --- | --- | --- |
| B1 | the hCdr2 wt protein severely phosphorylated the GST-Cdc25B (C terminal peptide: 282-381aa) | When GST-Cdc25C S216A was used as a substrate, phosphorylation of the hCdr2 wt protein did not occur | the hCdr2 wt protein phosphorylated GST-Cdc25C (C terminal peptide: 195-260aa) | When GST-Cdc25B S309A was used as a substrate, even the hCdr2 wt protein did not provide phosphorylation action | the human Weel could not be phosphorylated |
| B2 | the weak phosphorylating action exhibited by the mock and hCdr2 K59A | – | but failed to phosphorylate the hCdr2 K59A protein | – | – |
